The values below are quoted from earlier work in paper PMC4086743 (Amino acids, 2012).

B1: HD5: human Paneth cell α-defensin HD5 (peptide, UniProt Q01523 20-94, looked up)
Defensin alpha 5: ESLQERADEATTQKQSGEDNQDLAISFAGNGLSALRTSGSQARATCYCRTGRCATRESLSGVCEISGRLYRLCCR
modifications: Defensin-5
With B1, the sensitivity to chymotrypsin entry in the data set on chymotrypsin is “insensitive”. For the same molecule, the sensitivity to trypsin result in the data set with trypsin is “insensitive”.

B2: proCrp4: full-length precursor of Crp4 with electronegative proregion, recombinant (protein, UniProt P28311 20-92, looked up)
pro-form: DPIQNTDEETKTEEQPGEEDQAVSISFGGQEGSALHEKSLRGLLCYCRKGHCKRGERVRGTCGIRFLYCCPRR
modifications: pro-form
For B2, the “resistance to proteolysis by MMP7” value in the data set on MMP7 is “completely resistant”.
